From paper PMC6220978, “Induced conformational changes activate the peptidoglycan synthase PBP1B” (Molecular Microbiology, 2018) come the findings set out here.

Holding throughout (experiment): SPR; PBP1B versions immobilised to the chip surface; LpoB injected from 19.5 nM to 10 μM; apparent KD by non-linear regression, at least three independent experiments
Holding throughout (settings): both partners purified
For orientation: Surface plasmon resonance follows binding to a sensor surface in real time, without labels.

One assay deals with T1, PBP1B I202F (E. coli, UniProt P02919 46-844, I202F).
T1 construct: PBP1B, E. coli, residues 46-844, made by mutagenesis of pDML924; Substitution first found in the suppressor screen of Markovski et al. 2016 (LpoB bypass); source: E. coli BL21(DE3), purified (membrane extract, HisTrap, thrombin, HiTrap SP ion exchange)
T1 sequence (looked up): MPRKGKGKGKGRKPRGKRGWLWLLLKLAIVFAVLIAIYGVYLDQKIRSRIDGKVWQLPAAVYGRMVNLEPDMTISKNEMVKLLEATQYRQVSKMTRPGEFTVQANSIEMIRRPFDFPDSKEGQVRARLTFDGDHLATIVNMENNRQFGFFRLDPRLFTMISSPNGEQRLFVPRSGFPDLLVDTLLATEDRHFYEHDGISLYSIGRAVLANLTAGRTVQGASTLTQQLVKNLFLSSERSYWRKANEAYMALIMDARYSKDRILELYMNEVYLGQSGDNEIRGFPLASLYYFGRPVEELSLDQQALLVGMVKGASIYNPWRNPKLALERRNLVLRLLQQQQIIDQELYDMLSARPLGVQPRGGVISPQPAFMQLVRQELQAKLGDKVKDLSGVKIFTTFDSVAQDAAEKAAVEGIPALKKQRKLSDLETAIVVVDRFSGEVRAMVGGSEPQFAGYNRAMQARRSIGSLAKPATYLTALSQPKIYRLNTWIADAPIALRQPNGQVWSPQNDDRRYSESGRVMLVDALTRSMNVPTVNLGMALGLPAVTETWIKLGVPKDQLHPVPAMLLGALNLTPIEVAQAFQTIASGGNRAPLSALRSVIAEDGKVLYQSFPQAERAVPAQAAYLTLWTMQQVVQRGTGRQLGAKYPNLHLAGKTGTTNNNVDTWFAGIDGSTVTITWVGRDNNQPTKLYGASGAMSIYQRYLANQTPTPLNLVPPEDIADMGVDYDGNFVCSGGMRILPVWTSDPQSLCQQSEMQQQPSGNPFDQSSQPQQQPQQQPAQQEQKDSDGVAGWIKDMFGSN

For the next assay, the target named is T2, PBP1B R157A (E. coli, UniProt P02919 46-844, R157A).
T2 construct: PBP1B, E. coli, residues 46-844, made by mutagenesis of pDML924; source: E. coli BL21(DE3), purified (membrane extract, HisTrap, thrombin, HiTrap SP ion exchange)
T2 sequence (looked up): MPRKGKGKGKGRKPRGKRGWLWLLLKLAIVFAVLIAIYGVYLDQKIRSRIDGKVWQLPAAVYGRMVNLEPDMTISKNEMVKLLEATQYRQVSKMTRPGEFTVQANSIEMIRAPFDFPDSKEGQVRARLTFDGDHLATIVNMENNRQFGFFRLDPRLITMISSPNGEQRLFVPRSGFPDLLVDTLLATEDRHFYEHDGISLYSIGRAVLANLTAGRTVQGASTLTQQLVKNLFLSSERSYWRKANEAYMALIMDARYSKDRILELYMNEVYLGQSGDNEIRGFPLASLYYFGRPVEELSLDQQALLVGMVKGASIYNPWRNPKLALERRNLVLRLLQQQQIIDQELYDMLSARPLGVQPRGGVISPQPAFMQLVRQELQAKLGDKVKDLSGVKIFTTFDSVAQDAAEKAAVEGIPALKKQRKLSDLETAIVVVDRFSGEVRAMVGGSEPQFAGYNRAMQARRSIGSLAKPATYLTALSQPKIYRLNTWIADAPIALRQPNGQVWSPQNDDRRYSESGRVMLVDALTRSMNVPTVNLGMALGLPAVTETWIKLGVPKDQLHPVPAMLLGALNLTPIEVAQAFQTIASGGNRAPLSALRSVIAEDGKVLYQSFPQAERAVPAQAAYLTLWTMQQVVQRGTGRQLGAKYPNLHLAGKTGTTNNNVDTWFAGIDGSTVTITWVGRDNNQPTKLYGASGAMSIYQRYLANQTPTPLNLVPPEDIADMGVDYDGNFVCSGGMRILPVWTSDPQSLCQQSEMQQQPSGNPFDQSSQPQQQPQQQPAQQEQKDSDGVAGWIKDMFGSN

The target of a further assay is T3, PBP1B D160C/K437C (E. coli, UniProt P02919 46-844, D160C | K437C).
T3 construct: PBP1B, E. coli, residues 46-844, made by mutagenesis of pDML924; Disulphide bridge between C160 and C437 (no free thiol groups detected); reduced in the SPR assay with 2 mM TCEP; source: E. coli BL21(DE3), purified (membrane extract, HisTrap, thrombin, HiTrap SP ion exchange)
T3 sequence (looked up): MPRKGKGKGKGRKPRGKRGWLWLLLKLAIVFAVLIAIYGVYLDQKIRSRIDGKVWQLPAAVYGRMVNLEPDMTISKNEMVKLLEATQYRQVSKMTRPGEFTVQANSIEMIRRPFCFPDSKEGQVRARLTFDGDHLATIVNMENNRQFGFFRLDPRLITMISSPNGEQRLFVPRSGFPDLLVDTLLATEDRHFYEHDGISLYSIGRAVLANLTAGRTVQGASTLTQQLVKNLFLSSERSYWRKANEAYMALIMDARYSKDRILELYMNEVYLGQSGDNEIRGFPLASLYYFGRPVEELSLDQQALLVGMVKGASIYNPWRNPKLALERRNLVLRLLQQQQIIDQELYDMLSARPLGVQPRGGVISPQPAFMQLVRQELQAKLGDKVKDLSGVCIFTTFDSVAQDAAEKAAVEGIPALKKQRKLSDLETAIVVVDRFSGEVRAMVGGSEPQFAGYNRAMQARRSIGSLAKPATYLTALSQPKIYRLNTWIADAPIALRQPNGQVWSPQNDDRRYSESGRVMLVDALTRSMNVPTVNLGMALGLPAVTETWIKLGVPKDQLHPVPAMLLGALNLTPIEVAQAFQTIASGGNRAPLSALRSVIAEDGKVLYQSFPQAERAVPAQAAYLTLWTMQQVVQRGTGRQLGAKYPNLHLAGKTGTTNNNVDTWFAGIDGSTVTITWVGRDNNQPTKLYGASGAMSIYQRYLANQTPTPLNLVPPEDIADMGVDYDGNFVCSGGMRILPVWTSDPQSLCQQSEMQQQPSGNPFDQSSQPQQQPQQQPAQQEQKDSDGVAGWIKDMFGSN

B1: LpoB (natural protein, E. coli)
chain: VGQREPAPVEEVKPAPEQPAEPQQPVPTVPSVPTIPQQPGPIEHEDQTAPPAPHIRHYDWNGAMQPMVSKMLGADGVTAGSVLLVDSVNNRTNGSLNAAEATETLRNALANNGKFTLVSAQQLSMAKQQLGLSPQDSLGTRSKAIGIARNVGAHYVLYSSASGNVNAPTLQMQLMLVQTGEIIWSGKGAVSQQ
notes: LpoB, E. coli; also called lipoprotein LpoB; source: E. coli BL21(DE3), purified (HisTrap, Superdex 200), as in Egan et al. 2014
For the molecule B1, the Kd was 26 nM with PBP1B I202F, 505 nM with PBP1B R157A and 3.97 µM with PBP1B D160C/K437C.
